# Test system: Escherichia coli TOP10
# Assay: shrunken log2 fold change of peptide-encoding DNA abundance (4.5 h post-induction vs induction); higher = less antimicrobial activity (less host growth inhibition)
# Details: time post-induction: 4.5 h; library: site-saturation at positions 5, 18, 19, 20
# 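Also: peptides expressed intracellularly from a pBAD plasmid library in pooled LB shake-flask culture, induced with 0.3% L-arabinose, DNA abundance read by NGS, three biological replicates, DESeq2 with apeglm shrinkage.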
row,Sequence,shrunken log2 fold change
1,RRIRGRPPRLPRPRPRPTDHPRP,0.335
2,RRIRPRPPRLPRPRPRPKKGPRP,-0.0676
3,RRIRNRPPRLPRPRPRPRPPPRP,1.26
4,RRIRIRPPRLPRPRPRPRKAPRP,-0.000442
5,RRIRCRPPRLPRPRPRPMSPPRP,-0.0415
6,RRIRVRPPRLPRPRPRPEYKPRP,-0.501
7,RRIRQRPPRLPRPRPRPLNSPRP,-0.0233
8,RRIRDRPPRLPRPRPRPVNDPRP,-0.163
9,RRIRPRPPRLPRPRPRPIWGPRP,0.0815
10,RRIRKRPPRLPRPRPRPCIVPRP,-0.286
11,RRIRNRPPRLPRPRPRPGVPPRP,0.457
12,RRIRTRPPRLPRPRPRPVQIPRP,-0.0381
13,RRIRARPPRLPRPRPRPGPNPRP,0.66
14,RRIRVRPPRLPRPRPRPSKAPRP,0.0587
15,RRIRDRPPRLPRPRPRPVYIPRP,-0.497
16,RRIRRRPPRLPRPRPRPHTTPRP,-0.303
17,RRIRTRPPRLPRPRPRPGSEPRP,-0.0538
18,RRIRMRPPRLPRPRPRPNTAPRP,0.0661
19,RRIRQRPPRLPRPRPRPIHAPRP,-0.0062
20,RRIRQRPPRLPRPRPRPTCEPRP,0.0552
21,RRIRQRPPRLPRPRPRPCAVPRP,0.0208
22,RRIRFRPPRLPRPRPRPHCCPRP,-0.166

row,Sequence,shrunken log2 fold change
1,RRIRERPPRLPRPRPRPEAQPRP,0.227
2,RRIRDRPPRLPRPRPRPERYPRP,0.00592
3,RRIRTRPPRLPRPRPRPNQFPRP,-0.205
4,RRIRQRPPRLPRPRPRPWEKPRP,-0.0123
5,RRIRQRPPRLPRPRPRPCFWPRP,0.14
6,RRIRYRPPRLPRPRPRPIDPPRP,-0.00088
7,RRIRIRPPRLPRPRPRPRHRPRP,-0.0972
8,RRIRPRPPRLPRPRPRPTMCPRP,-0.0327
9,RRIRDRPPRLPRPRPRPNMMPRP,0.0387
10,RRIRPRPPRLPRPRPRPCMNPRP,-0.184
11,RRIRFRPPRLPRPRPRPLVHPRP,-0.298
12,RRIRGRPPRLPRPRPRPMKIPRP,0.533
13,RRIRERPPRLPRPRPRPKPFPRP,-0.37
14,RRIRPRPPRLPRPRPRPHPRPRP,0.597
15,RRIRERPPRLPRPRPRPPKDPRP,0.00712
16,RRIRKRPPRLPRPRPRPVTFPRP,-0.126
17,RRIRRRPPRLPRPRPRPHSTPRP,0.0894
18,RRIRLRPPRLPRPRPRPETRPRP,0.0057
19,RRIRNRPPRLPRPRPRPVNTPRP,-0.0908
20,RRIRTRPPRLPRPRPRPPSTPRP,0.186
21,RRIRFRPPRLPRPRPRPFQRPRP,0.0192
22,RRIRRRPPRLPRPRPRPMGRPRP,0.464

row,Sequence,shrunken log2 fold change
1,RRIRKRPPRLPRPRPRPEYFPRP,0.084
2,RRIRTRPPRLPRPRPRPGDDPRP,0.24
3,RRIRKRPPRLPRPRPRPPAVPRP,0.847
4,RRIRCRPPRLPRPRPRPNVNPRP,-0.461
5,RRIRRRPPRLPRPRPRPAHVPRP,0.0907
6,RRIRRRPPRLPRPRPRPFWHPRP,-0.0292
7,RRIRFRPPRLPRPRPRPRVAPRP,0.439
8,RRIRVRPPRLPRPRPRPFGGPRP,-0.216
9,RRIRYRPPRLPRPRPRPHGWPRP,-0.0273
10,RRIRHRPPRLPRPRPRPKPRPRP,0.177
11,RRIRMRPPRLPRPRPRPTPQPRP,1.31
12,RRIRNRPPRLPRPRPRPNEQPRP,-0.0324
13,RRIRERPPRLPRPRPRPSLHPRP,-0.309
14,RRIRPRPPRLPRPRPRPIVKPRP,0.000733
15,RRIRVRPPRLPRPRPRPQEDPRP,-0.467
16,RRIRHRPPRLPRPRPRPVHMPRP,-0.0408
17,RRIRARPPRLPRPRPRPVWFPRP,0.334
18,RRIRFRPPRLPRPRPRPCGPPRP,0.243
19,RRIRHRPPRLPRPRPRPRVNPRP,0.106
20,RRIRHRPPRLPRPRPRPDCYPRP,-0.0716
21,RRIRDRPPRLPRPRPRPENAPRP,0.37
22,RRIRWRPPRLPRPRPRPGSMPRP,-0.0806

row,Sequence,shrunken log2 fold change
1,RRIRARPPRLPRPRPRPMKTPRP,0.0191
2,RRIRERPPRLPRPRPRPCYFPRP,-0.917
3,RRIRWRPPRLPRPRPRPTQPPRP,0.398
4,RRIRCRPPRLPRPRPRPIPWPRP,-0.146
5,RRIRFRPPRLPRPRPRPKIIPRP,-0.592
6,RRIRNRPPRLPRPRPRPNLWPRP,0.315
7,RRIRHRPPRLPRPRPRPNNFPRP,-0.0738
8,RRIRVRPPRLPRPRPRPVFAPRP,0.217
9,RRIRARPPRLPRPRPRPQTCPRP,0.246
10,RRIRKRPPRLPRPRPRPNHYPRP,-0.441
11,RRIRMRPPRLPRPRPRPVRGPRP,1.18
12,RRIRGRPPRLPRPRPRPPWDPRP,0.832
13,RRIRLRPPRLPRPRPRPMSYPRP,-0.25
14,RRIRFRPPRLPRPRPRPKHNPRP,-0.483
15,RRIRERPPRLPRPRPRPKYFPRP,-0.0979
16,RRIRMRPPRLPRPRPRPAYVPRP,-0.114
17,RRIRHRPPRLPRPRPRPFVSPRP,-0.19
18,RRIRDRPPRLPRPRPRPMFCPRP,2.64
19,RRIRERPPRLPRPRPRPLPCPRP,-0.315
20,RRIRIRPPRLPRPRPRPYGMPRP,-0.354
21,RRIRCRPPRLPRPRPRPWKTPRP,-0.152
22,RRIRHRPPRLPRPRPRPFDMPRP,-0.00783

row,Sequence,shrunken log2 fold change
1,RRIRWRPPRLPRPRPRPEEPPRP,0.805
2,RRIRWRPPRLPRPRPRPPIAPRP,2.1
3,RRIRERPPRLPRPRPRPMSGPRP,0.0249
4,RRIRHRPPRLPRPRPRPMIRPRP,-0.173
5,RRIRIRPPRLPRPRPRPQKKPRP,-0.0235
6,RRIRWRPPRLPRPRPRPFCWPRP,0.403
7,RRIRQRPPRLPRPRPRPWCCPRP,0.0636
8,RRIRKRPPRLPRPRPRPKEAPRP,0.334
9,RRIRYRPPRLPRPRPRPGPPPRP,0.277
10,RRIRKRPPRLPRPRPRPDAQPRP,1.59
11,RRIRVRPPRLPRPRPRPAFHPRP,-0.208
12,RRIRCRPPRLPRPRPRPYRKPRP,-0.49
13,RRIRPRPPRLPRPRPRPSGAPRP,0.345
14,RRIRKRPPRLPRPRPRPRMVPRP,0.168
15,RRIRLRPPRLPRPRPRPEIQPRP,-0.0217
16,RRIRTRPPRLPRPRPRPRYYPRP,-0.112
17,RRIRYRPPRLPRPRPRPTFGPRP,-0.0386
18,RRIRIRPPRLPRPRPRPCLLPRP,-0.495
19,RRIRFRPPRLPRPRPRPLSCPRP,-0.73
20,RRIRERPPRLPRPRPRPHCWPRP,-0.0487
21,RRIRDRPPRLPRPRPRPEQQPRP,0.374

# Reference: the supplement of paper PMC9112550, “Optimization of the antimicrobial peptide Bac7 by deep mutational scanning” (BMC Biology, 2022)
